How the values were obtained:
[1] = molecular target: T1, catalytic domain of human LOXL2 (545-775) (human, UniProt Q9Y4K0 545-774); experiment: ELISA; plate coated with the catalytic domain of LOXL2, antibody titrated
T1 construct: No vector-derived tag is stated; also called recombinant catalytic domain of LOXL2; catalytic fragment
Description: (§1) A 96 well plate (Nunc) was coated with LOXL2 or BSA at 5 μg/ml. After the plate was coated, it was incubated with the antibody for 1 h at 25° C. The bound antibody was detected by peroxidase-conjugated antibody goat anti mouse according to standard procedures. The EC₅₀ was calculated from a four-parametric sigmoidal-curve fitting analysis.

[2] = molecular target: T1, catalytic domain of human LOXL2 …; experiment: ELISA; plate coated with the catalytic domain of LOXL2, antibody titrated, detection with peroxidase-conjugated goat anti-mouse antibody
Description: as §1

[3] = molecular target: T2, human LOXL2 (full length enzyme) (human, UniProt Q9Y4K0 26-774); experiment: microscale thermophoresis in solution; x axis printed as [LOXL2], nM; LOXL2 construct not specified on the sheet or in the legend
T2 construct: also called lysyl-oxidase like protein-2
T2 sequence: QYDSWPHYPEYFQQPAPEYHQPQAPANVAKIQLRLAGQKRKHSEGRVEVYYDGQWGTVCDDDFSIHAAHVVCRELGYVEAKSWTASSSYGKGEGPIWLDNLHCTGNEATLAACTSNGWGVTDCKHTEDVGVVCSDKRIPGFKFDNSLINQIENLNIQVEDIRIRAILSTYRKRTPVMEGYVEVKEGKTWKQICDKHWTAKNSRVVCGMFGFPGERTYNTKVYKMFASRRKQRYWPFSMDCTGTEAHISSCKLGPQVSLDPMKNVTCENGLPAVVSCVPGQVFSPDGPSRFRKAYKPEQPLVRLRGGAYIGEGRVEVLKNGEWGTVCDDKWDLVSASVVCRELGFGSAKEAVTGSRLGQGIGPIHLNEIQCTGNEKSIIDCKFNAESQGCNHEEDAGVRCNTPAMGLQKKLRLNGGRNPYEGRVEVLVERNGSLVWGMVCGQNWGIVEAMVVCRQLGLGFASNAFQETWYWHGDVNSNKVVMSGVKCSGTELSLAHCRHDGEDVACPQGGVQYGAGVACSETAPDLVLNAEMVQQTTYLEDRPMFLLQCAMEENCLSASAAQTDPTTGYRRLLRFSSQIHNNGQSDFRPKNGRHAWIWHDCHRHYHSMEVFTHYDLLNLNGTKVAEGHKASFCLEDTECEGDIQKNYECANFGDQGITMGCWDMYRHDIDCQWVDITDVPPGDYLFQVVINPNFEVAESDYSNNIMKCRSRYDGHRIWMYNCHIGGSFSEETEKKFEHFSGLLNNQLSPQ

B1: GS341 antibody (antibody, V domains shown)
VH: QVQLQQPGAELVRPGASVKLSCKASGYSFTNYWMSWVKQRPGQGLEWIGMIHPSDTDIRLHQKFKDKATLTVDKSSSTAYVQLSSPTSEDSAVYYCARGGQLGPWFAYWGQGTLVTVSA
VL: DIVMTQSPASLAVSLGQRATISCRASKSVSTSGYSYMHWYQQKPGQPPKLLIYLASNLESGVPARFSGSGSGTFTLNIHPVEEEDAATYYCQHSRELPWTFGGGTKLEIKR
notes: also called A341; ab341
[1]
  EC50 (read off the curve): ~0.4 nM
[2]
  EC50: 0.35 nM
[3]
  Kd: 6.97 nM

Reference: patent US20170210823A1 (YEDA RESEARCH AND DEVELOPMENT, published 2017)
